Data reported in publication PMC7948760, “Regulation of factor V and factor V-short by TFPIα: Relationship between B-domain proteolysis and binding” (The Journal of Biological Chemistry, 2021).
Ends that are not written are not given here.

T1: FV-short-RQ∗ (FV-short-RQ precleaved at Arg709 with thrombin) (human, UniProt P12259 29-737; P12259 738-2224, Δ756–1458 | Arg^1545 replaced with Gln)
T1 construct: coagulation factor V heavy chain (HC), released by cleavage at Arg709; coagulation factor V, rest of the shortened B-domain with AR2 joined to the light chain; also called FV-short cleaved at Arg709; source: FV-short-RQ (BHK cells, purified), 300 nM incubated with 2 nM thrombin 30 min at 37 °C, quenched with hirudin
T1 sequence (looked up) 1: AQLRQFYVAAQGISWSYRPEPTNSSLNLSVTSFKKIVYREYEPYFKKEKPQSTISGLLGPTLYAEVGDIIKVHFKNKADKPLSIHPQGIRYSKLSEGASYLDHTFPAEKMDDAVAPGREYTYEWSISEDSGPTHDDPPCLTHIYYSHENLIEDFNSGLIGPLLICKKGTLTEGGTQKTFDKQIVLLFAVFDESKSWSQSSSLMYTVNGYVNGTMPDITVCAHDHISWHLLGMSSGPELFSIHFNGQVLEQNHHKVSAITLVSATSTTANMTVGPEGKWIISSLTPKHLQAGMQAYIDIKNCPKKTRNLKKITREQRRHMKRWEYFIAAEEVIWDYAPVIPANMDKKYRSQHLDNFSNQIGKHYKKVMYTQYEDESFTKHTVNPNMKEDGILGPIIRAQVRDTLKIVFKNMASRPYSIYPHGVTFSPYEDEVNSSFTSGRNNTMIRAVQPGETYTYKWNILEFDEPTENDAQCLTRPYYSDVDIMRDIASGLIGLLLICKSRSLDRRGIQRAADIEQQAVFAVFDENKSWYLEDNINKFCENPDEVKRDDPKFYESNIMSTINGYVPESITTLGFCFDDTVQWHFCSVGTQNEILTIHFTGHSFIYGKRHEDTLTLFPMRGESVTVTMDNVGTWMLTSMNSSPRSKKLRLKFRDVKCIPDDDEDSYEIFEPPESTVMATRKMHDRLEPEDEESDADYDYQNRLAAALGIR
T1 sequence (looked up) 2: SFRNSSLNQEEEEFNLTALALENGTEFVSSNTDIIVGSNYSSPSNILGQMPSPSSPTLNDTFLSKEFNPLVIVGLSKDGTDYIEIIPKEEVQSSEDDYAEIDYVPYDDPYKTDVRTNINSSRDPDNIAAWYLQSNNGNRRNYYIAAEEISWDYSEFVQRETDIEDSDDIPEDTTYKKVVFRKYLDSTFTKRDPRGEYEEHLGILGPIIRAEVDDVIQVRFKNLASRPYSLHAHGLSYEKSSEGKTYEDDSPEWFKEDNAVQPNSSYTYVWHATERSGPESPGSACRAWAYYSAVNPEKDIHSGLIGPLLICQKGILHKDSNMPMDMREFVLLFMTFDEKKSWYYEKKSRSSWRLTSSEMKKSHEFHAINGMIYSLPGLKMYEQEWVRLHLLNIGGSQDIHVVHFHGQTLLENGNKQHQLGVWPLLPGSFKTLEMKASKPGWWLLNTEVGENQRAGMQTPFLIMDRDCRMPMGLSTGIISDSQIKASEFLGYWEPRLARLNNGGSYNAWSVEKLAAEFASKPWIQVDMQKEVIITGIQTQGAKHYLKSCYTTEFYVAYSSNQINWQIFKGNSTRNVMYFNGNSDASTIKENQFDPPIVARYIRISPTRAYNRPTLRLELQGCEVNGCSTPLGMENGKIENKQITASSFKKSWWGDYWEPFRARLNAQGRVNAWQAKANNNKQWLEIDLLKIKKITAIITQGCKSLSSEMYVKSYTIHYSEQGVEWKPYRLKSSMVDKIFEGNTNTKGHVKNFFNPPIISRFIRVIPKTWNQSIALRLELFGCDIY

T2: activated factor V (FVa) (human, UniProt P12259 29-737; P12259 1574-2224)
T2 construct: coagulation factor V heavy chain (HC; domains A1-A2); coagulation factor V light chain (LC; domains A3-C1-C2); source: prepared by treatment of FV-short (BHK cells) with thrombin, purified
T2 sequence (looked up) 1: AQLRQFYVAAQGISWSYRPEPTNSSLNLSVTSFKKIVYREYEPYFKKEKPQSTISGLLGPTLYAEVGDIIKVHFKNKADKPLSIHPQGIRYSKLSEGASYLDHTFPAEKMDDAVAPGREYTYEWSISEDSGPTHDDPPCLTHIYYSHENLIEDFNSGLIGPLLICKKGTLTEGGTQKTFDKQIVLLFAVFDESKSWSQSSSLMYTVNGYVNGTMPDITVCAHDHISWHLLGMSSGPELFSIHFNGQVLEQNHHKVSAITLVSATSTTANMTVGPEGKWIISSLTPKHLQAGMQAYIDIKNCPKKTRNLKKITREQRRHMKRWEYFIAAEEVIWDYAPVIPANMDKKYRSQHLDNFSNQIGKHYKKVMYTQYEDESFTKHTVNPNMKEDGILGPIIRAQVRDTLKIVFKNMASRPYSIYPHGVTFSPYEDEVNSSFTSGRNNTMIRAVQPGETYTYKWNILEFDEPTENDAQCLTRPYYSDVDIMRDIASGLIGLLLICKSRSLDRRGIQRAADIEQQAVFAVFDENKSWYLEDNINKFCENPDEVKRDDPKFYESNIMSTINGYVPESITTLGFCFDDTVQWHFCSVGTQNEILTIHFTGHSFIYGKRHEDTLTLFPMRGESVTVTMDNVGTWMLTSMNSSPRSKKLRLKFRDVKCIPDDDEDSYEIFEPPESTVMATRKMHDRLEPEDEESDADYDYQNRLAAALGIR
T2 sequence (looked up) 2: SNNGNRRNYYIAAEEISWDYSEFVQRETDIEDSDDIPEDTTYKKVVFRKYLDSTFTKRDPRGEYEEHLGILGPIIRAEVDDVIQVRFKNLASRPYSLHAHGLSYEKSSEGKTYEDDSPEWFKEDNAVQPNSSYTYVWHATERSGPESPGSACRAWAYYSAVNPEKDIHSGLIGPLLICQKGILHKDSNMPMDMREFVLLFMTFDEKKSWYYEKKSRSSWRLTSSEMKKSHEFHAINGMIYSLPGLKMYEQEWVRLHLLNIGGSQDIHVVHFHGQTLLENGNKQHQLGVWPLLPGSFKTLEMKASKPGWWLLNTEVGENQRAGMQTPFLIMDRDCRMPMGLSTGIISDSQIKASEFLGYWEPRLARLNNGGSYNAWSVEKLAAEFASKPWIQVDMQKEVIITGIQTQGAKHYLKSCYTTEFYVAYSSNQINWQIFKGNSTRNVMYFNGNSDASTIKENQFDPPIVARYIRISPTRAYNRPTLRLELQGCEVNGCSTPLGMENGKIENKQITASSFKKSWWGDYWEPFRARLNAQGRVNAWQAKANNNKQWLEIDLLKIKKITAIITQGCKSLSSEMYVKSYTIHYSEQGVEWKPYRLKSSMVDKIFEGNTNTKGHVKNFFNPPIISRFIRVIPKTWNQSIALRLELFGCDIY

T3: FV-short-QR∗ (FV-short-QR precleaved at Arg1545 with RVV-V) (human, UniProt P12259 29-1573; P12259 1574-2224, Δ756–1458 | Arg^709 replaced with Gln)
T3 construct: coagulation factor V heavy chain joined to the shortened B-domain with AR2; coagulation factor V light chain (LC), released by cleavage at Arg1545; also called FV-short cleaved at Arg1545; source: FV-short-QR (BHK cells, purified), 300 nM incubated with 2 nM RVV-V 30 min at 37 °C
T3 sequence (looked up) 1: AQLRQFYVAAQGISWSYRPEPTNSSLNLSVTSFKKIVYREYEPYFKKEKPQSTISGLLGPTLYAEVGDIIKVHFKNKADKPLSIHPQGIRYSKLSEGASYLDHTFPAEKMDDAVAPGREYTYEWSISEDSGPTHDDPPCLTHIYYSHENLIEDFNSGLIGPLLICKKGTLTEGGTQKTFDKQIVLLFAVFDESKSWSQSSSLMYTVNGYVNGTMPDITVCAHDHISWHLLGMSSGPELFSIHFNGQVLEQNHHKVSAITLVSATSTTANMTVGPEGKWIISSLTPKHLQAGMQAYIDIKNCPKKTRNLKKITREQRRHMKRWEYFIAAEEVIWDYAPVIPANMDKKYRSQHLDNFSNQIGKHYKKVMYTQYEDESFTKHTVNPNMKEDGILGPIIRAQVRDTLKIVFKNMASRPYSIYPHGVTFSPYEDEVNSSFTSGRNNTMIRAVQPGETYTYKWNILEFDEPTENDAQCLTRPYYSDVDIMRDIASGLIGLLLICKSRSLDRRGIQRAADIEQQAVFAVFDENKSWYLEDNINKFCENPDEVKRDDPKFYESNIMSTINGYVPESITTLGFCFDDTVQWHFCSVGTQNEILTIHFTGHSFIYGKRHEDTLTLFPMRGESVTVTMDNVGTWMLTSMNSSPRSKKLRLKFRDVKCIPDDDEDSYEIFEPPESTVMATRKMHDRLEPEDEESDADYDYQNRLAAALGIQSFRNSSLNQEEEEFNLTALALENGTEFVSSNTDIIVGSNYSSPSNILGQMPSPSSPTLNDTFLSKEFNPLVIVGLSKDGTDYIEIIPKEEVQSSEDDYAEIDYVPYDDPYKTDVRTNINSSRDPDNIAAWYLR
T3 sequence (looked up) 2: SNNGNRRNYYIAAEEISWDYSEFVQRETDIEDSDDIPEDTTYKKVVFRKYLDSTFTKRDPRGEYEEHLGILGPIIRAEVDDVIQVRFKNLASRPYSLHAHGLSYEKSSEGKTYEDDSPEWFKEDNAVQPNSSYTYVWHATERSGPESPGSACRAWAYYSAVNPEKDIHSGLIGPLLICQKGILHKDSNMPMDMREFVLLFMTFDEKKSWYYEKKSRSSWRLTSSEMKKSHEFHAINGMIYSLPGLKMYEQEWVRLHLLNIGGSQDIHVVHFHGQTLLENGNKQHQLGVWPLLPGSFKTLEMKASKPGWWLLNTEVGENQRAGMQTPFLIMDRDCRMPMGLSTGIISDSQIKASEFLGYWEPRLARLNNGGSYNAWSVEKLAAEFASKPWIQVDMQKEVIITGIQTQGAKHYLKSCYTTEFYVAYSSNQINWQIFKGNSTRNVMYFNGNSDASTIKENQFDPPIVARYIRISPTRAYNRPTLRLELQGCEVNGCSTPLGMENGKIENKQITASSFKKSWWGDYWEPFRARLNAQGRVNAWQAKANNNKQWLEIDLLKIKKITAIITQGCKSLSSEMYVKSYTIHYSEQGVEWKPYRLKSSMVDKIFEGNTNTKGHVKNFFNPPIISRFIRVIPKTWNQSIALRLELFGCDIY


Legend:
Settings in all cases: both partners purified
[1] = target: T4, FV-short (factor V isoform with B-domain residues 756 to 1458 deleted) (human); experiment: fluorescence polarisation; steady-state anisotropy; FV species (0–100 nM) titrated into 20 nM OG488-TFPIα-BR and 50 μM PCPS, assay buffer (20 mM HEPES, 0.15 M NaCl, 5 mM CaCl2, 0.1% PEG 8000, pH 7.4), 25 °C; fit to independent, noninteracting sites
T4 construct: coagulation factor V, splicing isoform FV-short, single chain, lacks the BR and retains AR2; source: BHK cells, purified

[2] = target: T1, FV-short-RQ∗ (FV-short-RQ precleaved at …); experiment: as above
[3] = target: T5, FV-short-QQ (FV-short with Arg709 and Arg1545 replaced with Gln) (human); experiment: fluorescence polarisation; competition: unlabeled TFPIα-BR (0–2 μM) or TFPIα (0–1 μM) titrated into 25 nM OG488-TFPIα-BR, 20 nM FV-short-QQ and 50 μM PCPS, assay buffer, 25 °C; stoichiometry of 1 assumed
T5 construct: coagulation factor V, FV-short with both thrombin cleavage sites changed to Gln, not cleaved by thrombin; source: BHK cells, purified

[4] = target: T4, FV-short (factor V isoform with …); experiment: inhibition of prothrombinase (prothrombin activation assay); 0.1 nM cofactor species, 50 μM PCPS, 1.4 μM prothrombin, 3 μM DAPA, TFPIα-BR 0–7 μM, started with 2 nM FXa, assay buffer, 25 °C; Ki from the equation for competitive inhibition
[5] = target: T5, FV-short-QQ (FV-short with Arg709 and …); experiment: as above
[6] = target: T1, FV-short-RQ∗ (FV-short-RQ precleaved at …); experiment: as above
activated factor V (FVa) = target: T2, activated factor V (FVa); experiment: as above
[7] = target: T4, FV-short (factor V isoform with …); experiment: as above; remark: listed apart in the source
[8] = target: T5, FV-short-QQ (FV-short with Arg709 and …); experiment: as above; remark: listed apart in the source
[9] = target: T1, FV-short-RQ∗ (FV-short-RQ precleaved at …); experiment: as above; remark: listed apart in the source
[10] = target: T3, FV-short-QR∗ (FV-short-QR precleaved at …); experiment: as above

Binder	Kd [1]	Kd [2]	Kd [3]	Ki [4]	Ki [5]	Ki [6]	Ki (activated factor V (FVa))	Ki [7]	Ki [8]	Ki [9]	Ki [10]
{C(Oregon Green488 maleimide)}-KKGFIQRISKGGLIKTKRKRKKQRVKIAYEEIFVKNM (domain or fragment) [OG488-TFPIα-BR, TFPIα-BR modified with Oregon Green488 maleimide]	0.71 ± 0.11 nM	2.16 ± 0.25 nM									
KKGFIQRISKGGLIKTKRKRKKQRVKIAYEEIFVKNM (domain or fragment, limits not printed (refs 17, 18); taken as the whole C-terminal tail after Kunitz 3 (mature 240-276); expressed in E. coli, unglycosylated) [TFPIα-BR, fragment containing the BR sequence of TFPIα]			2.25 ± 0.2 nM	19.8 nM	21.5 nM	86.1 nM	> 7000 nM	23.6 nM	23.4 nM	83.9 nM	> 7000 nM
